Experimental data taken from US20240301039A1 (NEW YORK UNIVERSITY IN ABU DHABI, published 2024).

Biological target: T1, uniformly 15N,13C-labelled wild-type SARS-CoV-2 NSP9 with an additional GlyAlaMetGly tetrapeptide at the … (SARS-CoV-2, UniProt P0DTD1 1-7096)
T1 construct: mature
Assay: 15N-1H HSQC NMR titration at 278 K

B1: nanobody 2NSP23 (VHH)
VHH: QVQLQESGGGLVQPGGSLRLSCAASGLAFSMYTMGWFRQAPGKEREFVAMIISSGDSTDYADSVKGRFTISRDNGKNTVYLQMDSLKPEDTAVYYCAAPKFRYYFSTSPGDFDSWGQGTQVTVSS
notes: also called 2NSP23 with His Tag
- backbone amide cross-peaks that survive at protein/nanobody ratio 1:2: ~35%
